In US20130273068A1 (published 2013):

Biological target: T1, human ADP-ribosyl cyclase 2 (BST1; CD157) (human, UniProt Q10588 33-293)
T1 construct: Endogenous BST1 on human cells (A549, H226, U937, AML blasts); also called Bone marrow stromal antigen 1; cell-surface human BST1
T1 sequence: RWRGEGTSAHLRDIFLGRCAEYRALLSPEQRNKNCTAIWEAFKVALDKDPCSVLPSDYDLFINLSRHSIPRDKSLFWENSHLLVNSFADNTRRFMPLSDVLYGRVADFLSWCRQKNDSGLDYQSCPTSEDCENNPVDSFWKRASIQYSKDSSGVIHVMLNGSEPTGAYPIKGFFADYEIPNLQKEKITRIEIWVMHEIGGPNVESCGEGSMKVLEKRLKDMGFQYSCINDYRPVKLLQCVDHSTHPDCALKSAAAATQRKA
Test: flow cytometry on A549 and H226 cells
Protocol: The specificity of antibodies against the BST1 selected in Example 2 was tested by flow cytometry. To test the ability of the antibodies to bind to the cell surface BST1 protein, the antibodies were incubated with the BST1-expressing cells, A549 and H226, from human lung adenocarcinoma and human lung squamous carcinoma, respectively. Cells were washed in FACS buffer (DPBS, 2% FBS), centrifuged and resuspended in […] of the diluted primary BST1 antibody (also diluted in FACS buffer). The antibody-A549 complex was incubated on ice for 60 min and then washed twice with FACS buffer as described above. The cell-antibody pellet was resuspended in 100 μl of the diluted secondary antibody (also diluted in FACS buffer) and incubated on ice for 60 min on ice. The pellet was washed as before and resuspended in […] FACS buffer. The samples were loaded onto the BD FACScanto II flow sytometer and the data analyzed using the BD FACSdiva software.

B1: BST1_A3 (Fab, V domains shown)
VH: QVQLQQSRAELVMPGASVKMSCKTSGYTFSDYWVHWVRQRPGQGLEWIGAIDGSDTFNDYSQKFKGRATLTVDESSSTVYMQLSSLTSEDSAVYYCARGGLLQYWGQGTTLTVSS
VL: DIQLTQSPASLSASVGETVTITCRASENIYSYLAWYQQKQGKSPQLLVYNTKTLGEGVPSRFSGSGSGTQFSLKINSLQPEDFGSYYCQHHYGTPFTFGSGTKLEIKR
- binding result: binds
